Patent US12421510B2, “Peptide, a complex and a method for treating cancer” (TECHNION RESEARCH & DEVELOPMENT FOUNDATION LIMITED, priority 2018, dated 2025)

T1: p105 (Homo sapiens, UniProt P19838)
T1 sequence (P19838 1-968): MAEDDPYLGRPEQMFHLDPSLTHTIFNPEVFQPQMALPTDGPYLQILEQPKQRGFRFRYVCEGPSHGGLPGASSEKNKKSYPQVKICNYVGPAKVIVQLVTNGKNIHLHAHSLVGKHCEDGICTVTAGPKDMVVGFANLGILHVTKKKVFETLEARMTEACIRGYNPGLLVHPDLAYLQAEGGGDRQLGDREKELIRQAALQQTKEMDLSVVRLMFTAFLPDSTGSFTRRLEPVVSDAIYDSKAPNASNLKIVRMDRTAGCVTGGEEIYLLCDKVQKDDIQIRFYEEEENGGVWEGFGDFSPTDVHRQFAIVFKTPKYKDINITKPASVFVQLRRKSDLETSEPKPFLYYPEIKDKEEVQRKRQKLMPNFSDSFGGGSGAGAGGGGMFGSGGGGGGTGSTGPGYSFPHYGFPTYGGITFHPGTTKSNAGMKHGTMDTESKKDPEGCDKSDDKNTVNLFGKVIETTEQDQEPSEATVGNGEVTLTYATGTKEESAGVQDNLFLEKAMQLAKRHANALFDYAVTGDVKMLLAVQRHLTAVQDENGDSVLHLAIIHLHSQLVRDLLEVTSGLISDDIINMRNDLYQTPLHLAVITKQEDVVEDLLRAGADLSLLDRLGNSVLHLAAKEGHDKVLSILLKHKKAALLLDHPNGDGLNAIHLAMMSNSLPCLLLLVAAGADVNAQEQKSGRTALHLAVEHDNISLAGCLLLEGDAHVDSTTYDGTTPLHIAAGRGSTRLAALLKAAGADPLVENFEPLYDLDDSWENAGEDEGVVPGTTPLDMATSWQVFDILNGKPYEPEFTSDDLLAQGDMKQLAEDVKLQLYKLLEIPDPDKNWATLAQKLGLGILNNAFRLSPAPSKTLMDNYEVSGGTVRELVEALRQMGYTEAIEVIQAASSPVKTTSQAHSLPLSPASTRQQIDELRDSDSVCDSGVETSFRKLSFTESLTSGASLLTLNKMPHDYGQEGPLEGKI


How the values were obtained:
[1] = system: glioblastoma U87-MG tumor; assay: Growth of U87-MG tumor xenografts overexpressing KPC1 species in nude mice; format: in vivo; settings: overexpression in U87-MG cells injected to nude mice; growth rates and weights of xenografts, three weeks after inoculation
Description: FIG. 8A and FIG. 8B depict growth rates and weights of tumor xenografts grown in nude mice, and derived from U87-MG expressing V0 (control), Myc-KPC1 or Flag-WILVRLW-KPC1Δ1-1039 (SEQ ID NO: 6).
Growth rates and weights (FIG. 8B) of tumor xenografts grown in nude mice, and derived from U87-MG expressing VO (control), Myc-KPC1, and Flag-WILVRLW-KPC1Δ1-1039 (SEQ ID. No. 6).

[2] = target: T1, p105; assay: Co-immunoprecipitation (Co-IP) of KPC1 species with p105-HA from transfected HEK293T cells; format: binding; set-up: HA; expressed in transfected cells; host or cells: HEK293T; settings: anti-FLAG immunoprecipitation, anti-NF-κB1 western blot, listed as full-length KPC1
Description: FIG. 1B is a western blot showing the following: HEK293T cells were transfected with cDNAs coding for p105-HA (lanes 1-6), along with the different KPC1 species as following: W.T KPC1 (lane 1), KPC1Δ969-1314 (lane 2), KPC1Δ1-438 & 1039-1314 (lane 3), KPC1Δ1-967 (lane 4) and KPC1Δ1-1042 (lane 5). Lane 6 was transfected with an empty vector. KPC1 species were immunoprecipitated using immobilized FLAG antibodies, resolved by SDS-page, and NF-κB1 and KPC1 proteins were visualized by anti-NF-κB1 (FIG. 1B (upper)) and anti-FLAG (FIG. 1B (bottom)) antibodies, respectively. 10% of the total cell lysate was analyzed for the expression of p105-HA.
FIG. 2B is a western blot. HEK293T cells were transfected with cDNAs coding for p105-HA (lanes 1-7), along with different KPC1 species as following: WT KPC1 (lane 1), KPC1Δ1-967 (lane 2), KPC1Δ967-1043 (lane 3), KPC1Δ1-973 (lane 4), KPC1Δ1-1017 (lane 5) and KPC1ΔCC domain (lane 6). Lane 7 represents cells that were transfected with empty vector. KPC1 species were immunoprecipitated using immobilized FLAG antibodies, resolved by SDS-page. NF-κB1 and KPC1 proteins were visualized with anti-NF-κB1 (FIG. 2B (i)) and anti-FLAG (FIG. 2B (ii)) antibodies, respectively. 10% of the total cell lysate was analyzed for the expression of p105-HA. FIGS. 3A and 3B: FIG. 3A is a schematic representation of KPC1 species used in the experiment shown in FIG. 3B that was directed to evaluating the region of KPC1 that is responsible for the interaction with p105.
FIG. 3B is a western blot. HEK293T cells were transfected with cDNAs coding for p105-HA (lanes 1-12), along with different KPC1 species as following: KPC1-FLAG (lane 1), WILVRLW-KPC1 Δ 1-1253 (SEQ ID NO: 8) (lane 2), ILVRLW-KPC1 Δ 1-1253 (SEQ ID NO: 10) (lane 3), LVRLW-KPC1 Δ 1-1253 (SEQ ID NO: 11) (lane 4), VRLW-KPC1 Δ 1-1253 (lane 5) (SEQ ID NO: 12), RLW-KPC1 Δ 1-1253 (lane 6) SEQ ID NO:13), KPC1 Δ 1-1253 (lane 7), WILVRL-KPC1 Δ 1-1253 (lane 8) (SEQ ID NO: 14), WILVR-KPC1 Δ 1-1253 (SEQ ID NO: 15) (lane 9), WILV-KPC1 Δ 1-1253 (SEQ ID NO: 16) (lane 10), WIL-KPC1 Δ 1-1253 (SEQ ID NO: 17 (lane 11). Lane 12 represents cells that were transfected with empty vector. KPC1 species were immunoprecipitated using immobilized FLAG antibodies, resolved by SDS-page. NF-κB1 and KPC1 proteins were visualized by anti-NF-κB1 (FIG. 3B, (i, ii) and anti-FLAG (FIG. 3B, (iii) antibodies, respectively. 10% of the total cell lysate was analyzed for the expression of p105-HA (FIG. 3B, (ii)).
HEK293T cells were transiently transfected with the various KPC1 species along with p105-HA using the j etPEI reagent. 48 hours after transfection, the cells were harvested and lysed with RIPA buffer [150 mM NaCl, 0.5% sodium deoxycholate, 50 mM Tris-HCl (pH 8.0), 0.1% SDS, and 1% NP-40, supplemented with freshly added protease inhibitors mixture]. KPC1 species proteins were immunoprecipitated with immobilized anti-FLAG, with subsequent washing of the beads five times with RIPA buffer. The immunoprecipitated proteins were resolved by SDS-PAGE (10%, FIGS. 1A, 1B, 2A and 2B, with a gel gradient, of 4-20%; FIGS. 3A and 3B), and blotted onto nitrocellulose (FIGS. 1A, 1B, 2A and 2B) or PVDF (FIGS. 3A and 3B) membranes. p105 and KPC1 species were visualized using anti-NF-κB1 or anti-FLAG antibodies, respectively.
Identification of the region of KPC1 that is responsible for the interaction with p105. In order to identify the region of KPC1 that is responsible for the interaction with p105, several truncated segments of the DNA sequence of the KPC1 protein were cloned. The truncated segments were inserted into the pCAGGS expression vector to analyze their interaction with p105 by co-immunoprecipitation (Co-IP) from cells. HEK 293T cells were transfected with cDNAs coding for p105-HA, along with different fragments of KPC1 (FIG. 1A). Species of KPC1 were immunoprecipitated using an immobilized anti-Flag antibody. […]

[3] = target: T1, p105; assay: Ubiquitination of p105 by purified KPC1 species in cell-free conjugation assay; format: biochemical; settings: reconstituted cell-free system, in vitro translated 35S-labeled p105, purified Ub, E1, E2, UbAl, ATP
Description: FIGS. 4A and 4B represent western blots showing in vitro ubiquitination of p105 by mutated species of KPC1: FIG. 4A: In vitro translated and ^35S-labeled p105 was ubiquitinated by purified KPC1-Δ1-967-6xHIS (lanes 2-4) or KPC1-Δ1-974-6xHIS (lanes 5-7) in a reconstituted cell-free system. 4B) In vitro translated and ^355-labeled p105 was ubiquitinated by purified KPC1-Δ1-967-6xHIS (lanes 2,5,6), KPC1-Δ1-974-6xHIS (lane 3), KPC1-Δ967-1043-6xHIS (lane 4), WILVRLW-KPC1-Δ1-1039-6xHIS (lanes 7-8) or WILVRLW-KPC1-Δ1-1061-6xHIS (lanes 9-10) in a reconstituted cell-free system.
In order to assess if the interaction between two proteins leads to the conjugation of the substrate p105, ubiquitination reaction was performed in cell free system. The conjugation reaction was carried out in the presence of purified Ub, E1, E2, UbAl, ATP and KPC1—either wild-type or different mutant species. Samples were resolved via SDS-PAGE and the 35S-labeled p105 and its adducts were visualized using autoradiography. […] In addition, the shorter versions of KPC1 in which the 7 amino acids sequence were brought closer to RING domain, the active site of the enzyme were prepared. Both truncated KPC1 proteins that harbor the 7 amino acid sequence, WILVRLW-KPC1-Δ1-1039 (SEQ ID. No. 6) and WILVRLW-KPC1-Δ1-1061 (SEQ ID. No. 7), modified p105 (FIG. 4B, lanes 7-10).

Row | ubiquitination of p105 [3] | Molecule | tumor growth [1] | interaction with p105 (Co-IP) [2]
1 | – | KPC1: wild-type ubiquitin ligase KPC1 (RNF123), SEQ ID NO: 2 (protein) MASKGAGMSFSRKSYRLTSDAEKSRVTGIVQEKLLNDYLNRIFSSSEHAPPAATSRKPLNFQNLPEHLDQLLQVDNEEEESQGQVEGRLGPSTVVLDHTGGFEGLLLVDDDLLGVIGHSNFGTIRSTTCVYKGKWLYEVLISSQGLMQIGWCTISCRFNQEEGVGDTHNSYAYDGNRVRKWNVTTTNYGKAWAAGDIVSCLIDLDDGTLSFCLNGVSLGTAFENLSRGLGMAYFPAISLSFKESVAFNFGSRPLRYPVAGYRPLQDPPSADLVRAQRLLGCFRAVLSVELDPVEGRLLDKESSKWRLRGQPTVLLTLAHIFHHFAPLLRKVYLVEAVLMSFLLGIVEKGTPTQAQSVVHQVLDLLWLFMEDYEVQDCLKQLMMSLLRLYRFSPIVPDLGLQIHYLRLTIAILRHEKSRKFLLSNVLFDVLRSVVFFYIKSPLRVEEAGLQELIPTTWWPHCSSREGKESTEMKEETAEERLRRRAYERGCQRLRKRIEVVEELQVQILKLLLDNKDDNGGEASRYIFLTKFRKFLQENASGRGNMPMLCPPEYMVCFLHRLISALRYYWDEYKASNPHASFSEEAYIPPQVFYNGKVDYFDLQRLGGLLSHLRKTLKDDLASKANIVIDPLELQSTAMDDLDEDEEPAPAMAQRPMQALAVGGPLPLPRPGWLSSPTLGRANRFLSTAAVSLMTPRRPLSTSEKVKVRTLSVEQRTREDIEGSHWNEGLLLGRPPEEPEQPLTENSLLEVLDGAVMMYNLSVHQQLGKMVGVSDDVNEYAMALRDTEDKLRRCPKRRKDILAELTKSQKVFSEKLDHLSRRLAWVHATVYSQEKMLDIYWLLRVCLRTIEHGDRTGSLFAFMPEFYLSVAINSYSALKNYFGPVHSMEELPGYEETLTRLAAILAKHFADARIVGTDIRDSLMQALASYVCYPHSLRAVERIPEEQRIAMVRNLLAPYEQRPWAQTNWILVRLWRGCGFGYRYTRLPHLLKTKLEDANLPSLQKPCPSTLLQQHMADLLQQGPDVAPSFLNSVLNQLNWAFSEFIGMIQEIQQAAERLERNFVDSRQLKVCATCFDLSVSLLRVLEMTITLVPEIFLDWTRPTSEMLLRRLAQLLNQVLNRVTAERNLFDRVVTLRLPGLESVDHYPILVAVTGILVQLLVRGPASEREQATSVLLADPCFQLRSICYLLGQPEPPAPGTALPAPDRKRFSLQSYADYISADELAQVEQMLAHLTSASAQAAAASLPTSEEDLCPICYAHPISAVFQPCGHKSCKACINQHLMNNKDCFFCKTTIVSVEDWEKGANTSTTSSAA | repressed glioblastoma U87-MG tumor growth | an interaction between p105 and the full-length KPC1 protein was observed
2 | modified p105 | WILVRLW-KPC1-Δ1-1039: truncated KPC1 with the 7 amino acid sequence brought closer to RING domain, SEQ ID NO: 6 (protein) WILVRLWAFSEFIGMIQEIQQAAERLERNFVDSRQLKVCATCFDLSVSLLRVLEMTITLVPEIFLDWTRPTSEMLLRRLAQLLNQVLNRVTAERNLFDRVVTLRLPGLESVDHYPILVAVTGILVQLLVRGPASEREQATSVLLADPCFQLRSICYLLGQPEPPAPGTALPAPDRKRFSLQSYADYISADELAQVEQMLAHLTSASAQAAAASLPTSEEDLCPICYAHPISAVFQPCGHKSCKACINQHLMNNKDCFFCKTTIVSVEDWEKGANTSTTSSAA | repressed glioblastoma U87-MG tumor growth | –
